The target of series [1] is T1, AF647-p53 (p53-SNAP labeled with AF647) (human, UniProt P04637 1-393). The series is described as follows: EMSA; complexes at low nM tetramer; EMSA: 25 mM HEPES pH 7.9, 50 mM KCl, 2.5 mM MgCl2, 1 mM EDTA, 10% glycerol, 0.1% NP-40, 1 mM DTT, 0.05 mg/mL BSA, room temp 30 min; TIRF: 25 mM Tris pH 7.9, 50. The following applies: protein: recombinant; tags: N-terminal His; C-terminal SNAP tag with AlexaFluor647; chain copies: 4; label: 5' 32P on reverse strand; blunt. (In general: In EMSA bound probe runs differently from free probe, usually more slowly.)
T1 sequence (P04637 whole entry): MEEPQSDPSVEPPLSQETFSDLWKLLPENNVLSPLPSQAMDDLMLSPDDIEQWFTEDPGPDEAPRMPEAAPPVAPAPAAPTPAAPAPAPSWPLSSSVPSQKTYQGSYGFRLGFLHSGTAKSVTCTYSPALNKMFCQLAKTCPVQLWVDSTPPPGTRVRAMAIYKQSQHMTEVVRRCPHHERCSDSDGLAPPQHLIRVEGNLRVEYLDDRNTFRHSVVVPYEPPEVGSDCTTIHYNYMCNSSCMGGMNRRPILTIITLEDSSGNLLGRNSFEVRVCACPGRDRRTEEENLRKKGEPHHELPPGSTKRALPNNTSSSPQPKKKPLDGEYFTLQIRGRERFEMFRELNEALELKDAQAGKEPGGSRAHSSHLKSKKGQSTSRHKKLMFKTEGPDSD

Series [2] deals with T1, AF647-p53 (p53-SNAP labeled with AF647). The series is described as follows: single-molecule TIRF; apparent upper limit (<=), koff 1.0 s-1, kon(obs) 0.0188 s-1; EMSA: 25 mM HEPES pH 7.9, 50 mM KCl, 2.5 mM MgCl2, 1 mM EDTA, 10% glycerol, 0.1% NP-40, 1 mM DTT, 0.05 mg/mL BSA, room temp 30 min; TIRF: 25 mM Tris pH 7.9, 50. The following applies: protein: recombinant; tags: N-terminal His; C-terminal SNAP tag with AlexaFluor647; chain copies: 4; label: 5' biotin on forward strand; 5' AF647 on reverse strand; 5' overhang 24 nt and 3' overhang 1 nt on forward strand as printed.

The target is the same in series [3]. Put plainly: EMSA; sub-nM affinity, assuming tetramer; EMSA: 25 mM HEPES pH 7.9, 50 mM KCl, 2.5 mM MgCl2, 1 mM EDTA, 10% glycerol, 0.1% NP-40, 1 mM DTT, 0.05 mg/mL BSA, room temp 30 min; TIRF: 25 mM Tris pH 7.9, 50. The following applies: protein: recombinant; tags: N-terminal His; C-terminal SNAP tag with AlexaFluor647; chain copies: 4; label: 5' 32P on reverse strand; blunt.

A value given as a limit tells only on which side of the number the result lay.

B1: random DNA (EMSA) (dsDNA)
DNA 1: CGTTCCTAATCGGGTAGGGGCTGACACGAATA
DNA 2: TATTCGTGTCAGCCCCTACCCGATTAGGAACG
Take B1: the binding result in series [1] is on record as “binds”.

B2: mutant half site DNA (single molecule) (dsDNA)
DNA 1: CGCGTTCATGGTAGAGTCGTGGACTAGAGCGAACATGTCTTTCAAAGGCGGCGTCG
DNA 2: GACGCCGCCTTTGAAAGACATGTTCGCTCTA
On to B2, for which the Kd in series [2] is below 13 nM.

B3: wild type DNA (EMSA) (dsDNA)
DNA 1: TAGAGCGAACATGTCTAAGCATGCTGGCGTCG
DNA 2: CGACGCCAGCATGCTTAGACATGTTCGCTCTA
For the molecule B3, the Kd in series [3] was below 1 nM.

The record behind these values is PMC7528078, “Single molecule studies reveal that p53 tetramers dynamically bind response elements containing one or two half sites”.
